“Also recorded” adds a separate entry of the source.
Experiments:
[1] = biological target: T1, EphA2-Ephrin A1-Fc-EA2 complex (Homo sapiens, UniProt P29317); assay: Displacement of biotinylated EA2 from EphA2-Ephrin A1-Fc complex by unlabeled competitor; type: binding; conditions: biotinylated EA2 10 μg/ml; FIG. 18B
T1 construct: consisting of the extracellular domain of EphA2 linked to human IgG1 constant region (EphA2-Fc)
Protocol: (A) EphA2-Fc was incubated with and bound to immobilized Ephrin A1-Fc. Labeled Ephrin A1-Fc (black), EA2 (white) or Eph099B-233.152 (grey) was incubated with the EphA2-Ephrin A1-Fc complex and amount of binding was measured. (B) EphA2-Fc was incubated with and bound to immobilized Ephrin A1-Fc. Labeled EA2 was then incubated with the EphA2-Ephrin A1 complex. Unlabeled competitor was incubated with EphA2-Ephrin A1-EA2 complex in the indicated amount. Competitors were Ephrin A1-Fc (black), EA2 (white) or Eph099B-233.152 (grey).
The EphA2-Ephrin A1-Fc complex was prepared as described above. Biotinylated EA2 (10 μg/ml) was then incubated with the complex for 30 min. Unlabeled competitor was incubated with EphA2-Ephrin A1-Fc-EA2 complex in the indicated amount. Unlabeled EA2 could displace the labeled EA2 at concentrations of 100 ng/ml or greater.

[2] = test system: MDA-MB-231 breast cancer cells; assay: Tumor growth, MDA-MB-231 cells implanted orthotopically into athymic mice; type: in vivo; conditions: 6 mg/kg i.p. twice a week for 3 weeks; FIG. 7A
Protocol: Total tumor volume was determined after sacrifice.

[3] = test system: MCF-7^EphA2 cells; assay: Soft agar colonization of MCF-7^EphA2 cells; type: cell-based; conditions: TAM 1 μM, EA2 10 μg/ml
Protocol: (B) MCF-7 (circles) or MCF-7^EphA2 cells (squares) were implanted into the mammary fatpad (n=15 mice per group) in the presence of supplemental estrogen.
MCF-7^EPhA2 cells were incubated in the presence of 3 μg/ml of EA2 for the time indicated prior to sample extraction and Western blot analyses with an EphA2-specific antibody (D7). (B) The membrane was stripped and re-probed with a β-catenin-specific antibody as a loading control.
Growth assays were conducted as follows. MCF-7^neo (control cells) or MCF7^EphA2 cells were seeded in 96-well plates. […] Colony formation in soft agar was performed as previously described (Zelinski et al., 2001, Cancer Res. 61: 2301-6) and scored microscopically, defining clusters of at least three cells as a positive. The data represent the average of ten separate high-power microscopic fields from each sample and representative of at least three separate experiments. Error bars represent the standard error of the mean of at least three different experiments as determined using Microsoft Excel software.
(§1) Growth MCF-7^EphA2 cells which had decreased EphA2 expression levels was assayed in soft agar.

[4] = biological target: T2, EphA2-Fc (Homo sapiens, UniProt P29317); assay: Competitive ELISA: inhibition of labeled EA2 binding to EphA2-Fc; conditions: unlabeled antibody, increasing concentrations; FIG. 1
T2 construct: consisted of the extracellular domain of human EphA2 linked to human immunoglobulin
T2 sequence (P29317 24-537 limits assumed): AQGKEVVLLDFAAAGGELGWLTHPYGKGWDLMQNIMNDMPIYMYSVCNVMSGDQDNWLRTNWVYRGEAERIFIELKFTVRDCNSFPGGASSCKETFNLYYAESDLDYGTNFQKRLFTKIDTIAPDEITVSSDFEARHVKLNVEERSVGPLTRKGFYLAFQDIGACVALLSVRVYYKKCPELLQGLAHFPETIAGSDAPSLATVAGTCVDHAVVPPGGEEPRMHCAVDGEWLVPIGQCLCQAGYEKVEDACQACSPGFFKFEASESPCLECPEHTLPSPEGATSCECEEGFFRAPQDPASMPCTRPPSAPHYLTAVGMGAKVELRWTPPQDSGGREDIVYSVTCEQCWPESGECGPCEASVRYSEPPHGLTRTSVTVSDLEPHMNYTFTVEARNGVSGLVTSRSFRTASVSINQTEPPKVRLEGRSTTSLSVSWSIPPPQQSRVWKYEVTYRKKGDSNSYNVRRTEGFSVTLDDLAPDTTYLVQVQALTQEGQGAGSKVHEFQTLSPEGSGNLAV
Protocol: The ability of labeled EA2 monoclonal antibody to bind EphA2-Fc was assayed by competitive ELISA in presence of either unlabeled monoclonal antibodies EA2 or Eph099B-208.261. Ratios of unlabeled to labeled antibody used in the assay are indicated on the x-axis.
Supernatants from bulk culture hybridomas were screened for immunoreactivity against EphA2 (Table 9, column 4) using standard molecular biological techniques (e.g., ELISA immunoassay). Supernatants were further screened for the ability to inhibit an EphA2 monoclonal antibody (EA2; ATCC deposit no. PTA-4380; see co-pending U.S. patent application Ser. No. 10/436,783, entitled “EphA2 Agonistic Monoclonal Antibodies and Methods of Use Thereof” filed May 12, 2003) from binding to EphA2. […] Additionally, many of the other antibodies could inhibit EA2 binding to EphA2 as well (Table 9, column 3).

[5] = biological target: EphA2 (Homo sapiens, UniProt P29317); assay: EphA2 expression in MCF-7^EphA2 cells after EA2 treatment (Western blot); type: cell-based
Chain of EphA2 (P29317 24-976): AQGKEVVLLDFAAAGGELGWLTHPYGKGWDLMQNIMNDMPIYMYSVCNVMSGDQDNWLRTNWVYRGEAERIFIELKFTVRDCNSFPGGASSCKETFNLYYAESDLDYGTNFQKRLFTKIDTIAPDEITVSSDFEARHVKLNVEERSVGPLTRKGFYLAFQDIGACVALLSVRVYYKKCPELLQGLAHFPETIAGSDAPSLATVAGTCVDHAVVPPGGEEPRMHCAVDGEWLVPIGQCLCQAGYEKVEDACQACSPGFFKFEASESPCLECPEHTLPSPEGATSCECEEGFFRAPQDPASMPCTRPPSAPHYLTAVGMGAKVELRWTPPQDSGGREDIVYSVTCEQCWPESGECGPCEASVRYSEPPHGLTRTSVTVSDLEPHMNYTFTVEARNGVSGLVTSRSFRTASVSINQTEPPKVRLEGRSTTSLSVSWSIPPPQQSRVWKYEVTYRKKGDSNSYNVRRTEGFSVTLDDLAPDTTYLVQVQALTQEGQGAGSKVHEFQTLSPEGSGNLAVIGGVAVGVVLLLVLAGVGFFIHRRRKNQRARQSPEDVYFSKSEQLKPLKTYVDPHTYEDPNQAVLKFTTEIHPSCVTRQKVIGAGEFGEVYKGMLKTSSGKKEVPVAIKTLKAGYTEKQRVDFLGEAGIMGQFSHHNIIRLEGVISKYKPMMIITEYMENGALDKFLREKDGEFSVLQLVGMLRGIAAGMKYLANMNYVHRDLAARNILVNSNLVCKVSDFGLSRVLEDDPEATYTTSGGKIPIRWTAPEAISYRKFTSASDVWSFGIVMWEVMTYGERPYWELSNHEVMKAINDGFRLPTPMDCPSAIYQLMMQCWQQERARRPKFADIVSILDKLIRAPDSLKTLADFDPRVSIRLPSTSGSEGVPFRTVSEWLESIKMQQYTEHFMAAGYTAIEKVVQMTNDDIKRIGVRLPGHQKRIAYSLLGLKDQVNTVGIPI
Protocol: MCF-7^EPhA2 cells were incubated in the presence of 3 μg/ml of EA2 for the time indicated prior to sample extraction and Western blot analyses with an EphA2-specific antibody (D7).
Estrogen-sensitive breast cancer cells, MCF-7 cells, were transfected with and stably overexpressed human EphA2 (MCF-7^EphA2) (pNeoMSV-EphA2 provided by Dr. T. Hunter, Scripps Institute). Western blot analyses confirmed the ectopic overexpression of EphA2 in transfected cells relative to matched controls (data not shown).
as §1

T1 sequence (P29317 24-537 limits assumed): as the sequence (P29317 24-537 limits assumed) above
T1 sequence (P20827 19-182 partner limits assumed): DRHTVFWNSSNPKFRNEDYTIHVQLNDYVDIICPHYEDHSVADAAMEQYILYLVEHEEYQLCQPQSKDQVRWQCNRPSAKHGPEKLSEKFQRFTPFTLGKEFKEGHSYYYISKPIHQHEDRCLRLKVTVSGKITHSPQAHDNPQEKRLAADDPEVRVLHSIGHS

- Concentration of unlabeled competitor displacing labeled EA2 [1]: ≥ 100 ng/mL
- Time EphA2 remained undetectable after EA2 treatment ([5]; 3 μg/ml EA2): ≥ 24 h
B1: EA2: EphA2 agonistic monoclonal antibody; hybridoma strain EA2.31, ATCC PTA-4380 (antibody, V domains shown)
VH: DVKLVESGGGLVKPGGSLKLSCAASGFTFSSYTMSWVRQTPEKRLEWVATISSGGTYTYYPDSVKGRFTISRDNAKNTLYLQMSSLKSEDTAMYYCTREAIFTYWGQGTLVTVSA
VL: DIKMTQSPSSMYASLGERVTITCKASQDINNYLSWFQQKPGKSPKTLIYRANRLVDGVPSRFSGSGSGQDYSLTISSLEYEDMGIYYCLKYDEFPYTFGGGTKLEIK
- Tumor growth, MDA-MB-231 implanted orthotopically [2]: inhibited
- Soft agar colonization response / tamoxifen sensitivity, MCF-7^EphA2 cells ([3]; 1 μM 17β-estradiol, FIGS. 11A, 13C (11A also MCF-7)): restored a phenotype that was comparable to control MCF-7 cells; also recorded: decreases malignant growth; also recorded: increased the sensitivity of MCF-7^EphA2 cells to tamoxifen
- Inhibition / decrease of soft agar colonization, MCF-7^EphA2 cells ([3]; 14 days): 19%
- Competition with labeled EA2 for binding to EphA2-Fc [4]: could decrease the amount of labeled EA2 binding to EphA2-Fc
- EphA2 activation and expression level after EA2 treatment ([5]; 3 μg/ml EA2, FIG. 13A): induced EphA2 activation and subsequent degradation; also recorded: Decreased levels of EphA2 expression were observed within two hours
